B1: LINE1-full (parent)
chain: UACGUAGGUGGUUUUCCCCUGAUAGUGCUAAGGGGGCCUGGAAGUUUGGACUGGGCAGAGCUCAACACAGCGUGGCAAAGUGGCUGUGGCUAGACUGCCUCUCUGGAUUCCUCGUCACUCAGCAGGGCAUCUCUGAGAGAAAUGCC

In the data set the parent is B1. Kind of data set: self-cleavage, relative activity (ratio to wild type); higher = more cleavage; in vitro, sequencing; the parent is a self-cleaving ribozyme.
A65U U109C: the self-cleavage was 0.18.

On to A65G U109C, for which the self-cleavage was 0.06.

Turning to A65G U109G, the self-cleavage turned out to be 0.23.

Consider A64U U85C, for which the self-cleavage was 0.08.

As for A64U U87C, the self-cleavage was determined as 0.12.

For the variant C66U U85G, the self-cleavage stood at 0.03.

For the variant A67G U85G, the self-cleavage amounted to 0.12.

Take A67G U85A: the self-cleavage is 0.08.

As for A67G U85C, the self-cleavage is 0.1.

For the variant A67G U109A, the self-cleavage was determined as 0.43.

For the variant A67G U100A, the self-cleavage worked out at 0.06.

Regarding A69C A141G, the self-cleavage stood at 0.07.

With A65U A121G, the self-cleavage was 0.21.

Take C66U U91A: the self-cleavage was 0.05.

In the case of A67C A140G, the self-cleavage stood at 0.06.

Take C66A U115C: the self-cleavage was 0.05.

In the case of A67G C95A, the self-cleavage came out at 0.07.

With C68U A107U, the self-cleavage was found to be 0.19.

On to C68U A107G, for which the self-cleavage turned out to be 0.12.

On to C68U A69G, for which the self-cleavage was 0.11.

On to A64G U73A, for which the self-cleavage worked out at 0.19.

Take A64G U73C: the self-cleavage came out at 0.17.

For the variant A67C A124G, the self-cleavage worked out at 0.06.

Turning to A64U A79G, the self-cleavage is 0.4.

For A65G A136G, the self-cleavage came out at 0.07.

For A69C A142C, the self-cleavage came out at 0.13.

Turning to A69C U134C, the self-cleavage was 0.03.

With A67U C90G, the self-cleavage was determined as 0.04.

With A65G U143C, the self-cleavage came to 0.08.

For the variant A65G U143A, the self-cleavage turned out to be 0.06.

In the case of A65G C145G, the self-cleavage is 0.02.

Consider A65C A136G, for which the self-cleavage came to 0.

Regarding C68U U143C, the self-cleavage turned out to be 0.22.

A67G U73A: the self-cleavage stood at 0.24.

As for A67G U73C, the self-cleavage came to 0.66.

In the case of C66U A107G, the self-cleavage worked out at 0.03.

On to A65C A140G, for which the self-cleavage came out at 0.05.

On to A67U U100C, for which the self-cleavage worked out at 0.27.

As for C68U A129C, the self-cleavage was 0.22.

Consider A64U U112C, for which the self-cleavage was 0.44.

As for C68U G135A, the self-cleavage worked out at 0.22.

For C68A C133A, the self-cleavage turned out to be 0.02.

Regarding A67G C101U, the self-cleavage was determined as 0.75.

Take C68U A136G: the self-cleavage came to 0.36.

As for A64U U100A, the self-cleavage came out at 0.23.

As for A64U U100C, the self-cleavage came out at 0.77.

A64G G97C: the self-cleavage was 0.11.

On to A64G G97A, for which the self-cleavage stood at 0.07.

As to A65G C95U, the self-cleavage is 0.05.

In the case of A67C A94G, the self-cleavage is 0.

For A64G C116A, the self-cleavage was determined as 0.1.

For the variant A64U C110A, the self-cleavage is 0.44.

A65U U132C: the self-cleavage was determined as 0.2.

For A65U U119G, the self-cleavage turned out to be 0.45.

Take A65U U119C: the self-cleavage worked out at 0.19.

Regarding C66A A107U, the self-cleavage is 0.05.

C66A A107G: the self-cleavage was 0.03.

A69C U85C: the self-cleavage is 0.03.

For the variant A67U C131U, the self-cleavage was 0.08.

In the case of C66U, the self-cleavage is 0.05.

As to C66G, the self-cleavage came to 0.04.

Take C66A: the self-cleavage worked out at 0.05.

For C66U A142C, the self-cleavage is 0.04.

Consider A64G G144A, for which the self-cleavage was found to be 0.21.

As to A67G A69C, the self-cleavage is 0.37.

Consider A67G A69U, for which the self-cleavage amounted to 0.06.

For the variant A64U U115C, the self-cleavage worked out at 0.63.

A67U U130C: the self-cleavage amounted to 0.15.

For the variant A67G A121C, the self-cleavage was 0.62.

Regarding A69C G83A, the self-cleavage was 0.02.

For A64G C113A, the self-cleavage is 0.17.

For the variant A64G C113U, the self-cleavage amounted to 0.13.

For A65C U81A, the self-cleavage worked out at 0.02.

Turning to C68U U130C, the self-cleavage is 0.19.

As to A67U U132A, the self-cleavage turned out to be 0.11.

A67U U132C: the self-cleavage came out at 0.16.

With A65U U104A, the self-cleavage turned out to be 0.14.

For the variant C68U U132C, the self-cleavage came to 0.25.

As for A65U C71U, the self-cleavage turned out to be 0.05.

On to A64G C118U, for which the self-cleavage amounted to 0.29.

Take A65U U112C: the self-cleavage came out at 0.26.

Turning to A65G U81C, the self-cleavage stood at 0.09.

With A65G A79U, the self-cleavage is 0.04.

Consider A64U A117U, for which the self-cleavage was 0.49.

For A69C U81C, the self-cleavage was found to be 0.

Turning to A67G U81A, the self-cleavage amounted to 0.63.

Take A65G G122U: the self-cleavage stood at 0.07.

Take A65U A136G: the self-cleavage worked out at 0.2.

A67G C99A: the self-cleavage was found to be 0.17.

With A67U A117G, the self-cleavage is 0.19.

As to A64U A121U, the self-cleavage is 0.53.

As for A64U A121G, the self-cleavage was determined as 0.49.

Turning to A64G G86A, the self-cleavage was 0.08.

Turning to C66U A92G, the self-cleavage was found to be 0.02.

Turning to A64G U104C, the self-cleavage stood at 0.59.

As for C66U A129G, the self-cleavage was 0.01.

In the case of A67U A107U, the self-cleavage came to 0.04.

A67G C76U: the self-cleavage was 0.62.

Consider A67G G82A, for which the self-cleavage worked out at 0.23.

As for A69C C76U, the self-cleavage was 0.08.

As for A65U U96A, the self-cleavage stood at 0.

For the variant A67U U134C, the self-cleavage was found to be 0.16.

As to A67U U73A, the self-cleavage amounted to 0.05.

Consider A69G A78G, for which the self-cleavage was 0.25.

For the variant A64U U81A, the self-cleavage turned out to be 0.85.

With A67U C110U, the self-cleavage stood at 0.14.

For the variant A64U U130C, the self-cleavage worked out at 0.55.

With A64U U130G, the self-cleavage came out at 0.43.

Regarding A65U U134A, the self-cleavage stood at 0.13.

On to A64G U143C, for which the self-cleavage is 0.26.

As to A65U U73C, the self-cleavage worked out at 0.16.

A65U C111U: the self-cleavage was 0.24.

On to A67U U81C, for which the self-cleavage is 0.13.

For the variant C68U U134A, the self-cleavage was determined as 0.18.

Take A67G C110U: the self-cleavage was 0.46.

A64U A65G: the self-cleavage turned out to be 0.07.

On to A64G C146U, for which the self-cleavage came to 0.24.

Regarding A65G U85G, the self-cleavage came to 0.07.

For the variant A67G U108C, the self-cleavage was determined as 0.6.

As for A67G U108A, the self-cleavage is 0.5.

As to A64G U112A, the self-cleavage was determined as 0.16.

As for A65G U132A, the self-cleavage is 0.04.

Turning to A67U G106A, the self-cleavage came to 0.15.

For A65C G80A, the self-cleavage came to 0.02.

As to A67U A69G, the self-cleavage was 0.03.

For the variant A67C U104G, the self-cleavage worked out at 0.14.

A64U A78G: the self-cleavage turned out to be 0.27.

In the case of A67U U87A, the self-cleavage worked out at 0.57.

For the variant A65G C101U, the self-cleavage stood at 0.04.

As for A64U U119C, the self-cleavage was 0.61.

With A64G U81C, the self-cleavage is 0.3.

Consider A65C A141G, for which the self-cleavage worked out at 0.02.

Turning to A65G A142G, the self-cleavage turned out to be 0.06.

In the case of A64G U108C, the self-cleavage came out at 0.31.

Take A67C U134C: the self-cleavage is 0.09.

A67C U134A: the self-cleavage stood at 0.02.

A64U G144A: the self-cleavage is 0.42.

Regarding A64G C123U, the self-cleavage was 0.26.

For A65G G144A, the self-cleavage stood at 0.1.

With A67U A92G, the self-cleavage stood at 0.04.

In the case of A67U A92U, the self-cleavage is 0.05.

As to A64U U96C, the self-cleavage was 0.04.

A64G U115A: the self-cleavage is 0.08.

A64G U115G: the self-cleavage came out at 0.35.

Consider A67G C118A, for which the self-cleavage was 0.58.

For A67U A129G, the self-cleavage is 0.08.

For the variant A69C C131A, the self-cleavage stood at 0.09.

Regarding A65G C103U, the self-cleavage amounted to 0.06.

In the case of A64U A77U, the self-cleavage came out at 0.48.

Consider A64U A77G, for which the self-cleavage is 0.75.

Consider C68A, for which the self-cleavage stood at 0.04.

Consider C68U, for which the self-cleavage was 0.13.

As to C68G, the self-cleavage was determined as 0.05.

As to A67G A140G, the self-cleavage was 0.42.

Turning to A69C A121U, the self-cleavage came out at 0.04.

As for A69C A121G, the self-cleavage is 0.11.

As for A67G U143A, the self-cleavage stood at 0.42.

In the case of A67G U143C, the self-cleavage was 0.57.

For the variant C66A A124U, the self-cleavage is 0.04.

For A65C A129G, the self-cleavage was 0.09.

As to A67G G83C, the self-cleavage came out at 0.13.

With A65G U112A, the self-cleavage worked out at 0.04.

For the variant A65U C99U, the self-cleavage was determined as 0.1.

As for A64U U143C, the self-cleavage came to 0.42.

As to A65G A107U, the self-cleavage was 0.

On to A65G A121G, for which the self-cleavage was determined as 0.08.

A67U G88A: the self-cleavage amounted to 0.03.

The record behind these values is the RNAGym collection of RNA variant scans (doi:10.7554/elife.90254).
